Laboratory results reported in paper PMC3489907, “The Human Homolog of Escherichia coli Endonuclease V Is a Nucleolar Protein with Affinity for Branched DNA Structures”.

Biological target: T1, ENDOV WT (human endonuclease V, exon 10 isoform) (Homo sapiens, UniProt Q8N8Q3 1-282)
T1 sequence: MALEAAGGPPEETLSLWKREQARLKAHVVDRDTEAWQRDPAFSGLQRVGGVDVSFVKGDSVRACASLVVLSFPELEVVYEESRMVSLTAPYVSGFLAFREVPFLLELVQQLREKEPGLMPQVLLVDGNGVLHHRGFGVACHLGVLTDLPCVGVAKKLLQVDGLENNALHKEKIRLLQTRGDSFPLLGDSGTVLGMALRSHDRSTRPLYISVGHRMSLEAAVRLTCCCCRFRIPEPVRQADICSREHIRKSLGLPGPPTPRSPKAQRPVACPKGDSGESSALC
Test: EMSA; 5 mM Ca2+; EMSA: 10 fmol DNA in 10 µl, 5 ng pQE31 competitor DNA, 5 mM CaCl2, 10 mM HEPES-KOH pH 7.4, 1 mM DTT, 20% glycerol, 4°C 15 min; 10% native PAGE with 5 mM CaCl2 on ice; ENDOV 1.6-6.4 pmol, E. coli endoV 2-8 pmol
Settings: protein: recombinant, tags: none (His6-MBP removed with TEV)

B1: 5'-flap (10+12+13*) (structured_DNA)
DNA 1: GGATACGTAACAACGCTTATGCATCGCCGCCGCTACATCCCTGAGCTGAC
DNA 2: GTCAGCTCAGGGATGTAGCGGCGG
DNA 3: TGTGTTCGATCTCGATCAGAATGACGATGCATAAGCGTTGTTACGTATCC
Does B1 bind (label: 5'-32P on strand 3, 5'-flap, 1:2 1:3, 5' part of strand 3 unpaired (24 nt))?
Result: binds

B2: pseudo-Y (10*+13) (structured_DNA)
DNA 1: GGATACGTAACAACGCTTATGCATCGCCGCCGCTACATCCCTGAGCTGAC
DNA 2: TGTGTTCGATCTCGATCAGAATGACGATGCATAAGCGTTGTTACGTATCC
Does B2 bind (label: 5'-32P on strand 1, splayed duplex 1:2, 3' part of strand 1 and 5' part of strand 2 unpaired (24 nt each))?
Result: binds

B3: 3-way junction (10*+13+14) (structured_DNA)
DNA 1: GGATACGTAACAACGCTTATGCATCGCCGCCGCTACATCCCTGAGCTGAC
DNA 2: TGTGTTCGATCTCGATCAGAATGACGATGCATAAGCGTTGTTACGTATCC
DNA 3: GTCAGCTCAGGGATGTAGCGGCGGAGTCATTCTGATCGAGATCGAACACA
Does B3 bind (label: 5'-32P on strand 1, three-way junction 1:2 1:3 2:3)?
Result: binds

B4: fork (10+11+14*+15) (structured_DNA)
DNA 1: GGATACGTAACAACGCTTATGCATCGCCGCCGCTACATCCCTGAGCTGAC
DNA 2: ATGCATAAGCGTTGTTACGTATCC
DNA 3: GTCAGCTCAGGGATGTAGCGGCGGAGTCATTCTGATCGAGATCGAACACA
DNA 4: TGTGTTCGATCTCGATCAGAATGA
Does B4 bind (label: 5'-32P on strand 3, fork 1:2 1:3 3:4)?
Result: binds

B5: 3'-flap (10+11+14*) (structured_DNA)
DNA 1: GGATACGTAACAACGCTTATGCATCGCCGCCGCTACATCCCTGAGCTGAC
DNA 2: ATGCATAAGCGTTGTTACGTATCC
DNA 3: GTCAGCTCAGGGATGTAGCGGCGGAGTCATTCTGATCGAGATCGAACACA
Does B5 bind (label: 5'-32P on strand 3, 3'-flap, 1:2 1:3, 3' part of strand 3 unpaired)?
Result: binds

B6: Holliday junction (16+17*+18+19) (structured_DNA)
DNA 1: CCGCTACCAGTGATCACCAATGGATTGCTAGGACATCTTTGCCCACCTGCAGGTTCACCC
DNA 2: TGGGTGAACCTGCAGGTGGGCAAAGATGTCCTAGCAATCCATTGTCTATGACGTCAAGCT
DNA 3: GAGCTTGACGTCATAGACAATGGATTGCTAGGACATCTTTGCCGTCTTGTCAATATCGGC
DNA 4: TGCCGATATTGACAAGACGGCAAAGATGTCCTAGCAATCCATTGGTGATCACTGGTAGCGG
Does B6 bind (label: 5'-32P on strand 2, four-way junction 1:2 2:3 3:4 4:1)?
Result: binds
